The record followed here is article doi:10.1101/2025.09.10.675329 (bioRxiv, 2025).

The target in the test is CDK5 (full-length), His-tag cleaved (human, UniProt Q00535 1-292). In words: SEC.

B1: cyclin B1 (amino acids 152-433, C167S, C238S, C350S), co-expressed with CDK5 from a single 438-B vector (domain or fragment)
chain: AVNDVDAEDGADPNLSSEYVKDIYAYLRQLEEEQAVRPKYLLGREVTGNMRAILIDWLVQVQMKFRLLQETMYMTVSIIDRFMQNNSVPKKMLQLVGVTAMFIASKYEEMYPPEIGDFAFVTDNTYTKHQIRQMEMKILRALNFGLGRPLPLHFLRRASKIGEVDVEQHTLAKYLMELTMLDYDMVHFPPSQIAAGAFSLALKILDNGEWTPTLQHYLSYTEESLLPVMQHLAKNVVMVNQGLTKHMTVKNKYATSKHAKISTLPQLNSALVQDLAKAVAKV
Take B1: the binding result is listed as “binds”.
